Columns and labels:
Experiment in all cases: proximity ligation
[1] = target: HIV-1 Gag with the CA mutation G89A, expressed from a proviral point mutant (HIV-1)
[2] = target: HIV-1 Gag with the CA mutations Q7A/Q9A, expressed from a proviral point mutant (HIV-1)
[3] = target: HIV-1 Gag, wild type, expressed from the proviral clone pNL4-3 (HIV-1)
[4] = target: mCh-GagQ7A/Q9A (HIV-1)
[5] = target: mCherry-Gag (HIV-1)

Chain of Cyclophilin A (P62937 whole entry): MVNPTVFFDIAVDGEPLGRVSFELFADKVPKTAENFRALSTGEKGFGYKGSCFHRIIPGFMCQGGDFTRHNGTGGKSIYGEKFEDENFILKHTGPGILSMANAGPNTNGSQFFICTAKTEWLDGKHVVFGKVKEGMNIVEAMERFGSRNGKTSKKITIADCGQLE
Chain of Ras-GAP SH3 domain-binding protein (G3BP1), endogenous (Q13283 whole entry, the tested form may be a part): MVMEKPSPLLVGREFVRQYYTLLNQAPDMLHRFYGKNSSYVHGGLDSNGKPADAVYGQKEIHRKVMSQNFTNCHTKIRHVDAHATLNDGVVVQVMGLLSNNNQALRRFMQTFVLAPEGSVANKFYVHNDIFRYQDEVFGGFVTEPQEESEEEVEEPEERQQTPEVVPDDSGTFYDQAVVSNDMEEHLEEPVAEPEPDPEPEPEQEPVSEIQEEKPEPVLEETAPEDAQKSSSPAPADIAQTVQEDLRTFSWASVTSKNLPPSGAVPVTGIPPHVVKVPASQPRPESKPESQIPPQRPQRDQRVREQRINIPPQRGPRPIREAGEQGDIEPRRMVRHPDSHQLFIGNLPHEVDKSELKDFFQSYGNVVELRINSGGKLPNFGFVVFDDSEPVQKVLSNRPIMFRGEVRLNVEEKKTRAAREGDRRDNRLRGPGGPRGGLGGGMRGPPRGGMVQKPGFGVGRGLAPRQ

| Substance | PLA spots/cell [1] [spots/cell] | PLA spots/cell [2] [spots/cell] | PLA spots/cell [3] [spots/cell] | PLA spots/cell [4] [spots/cell] | PLA spots/cell [5] [spots/cell] |
| --- | --- | --- | --- | --- | --- |
| eukaryotic elongation factor 2, endogenous (from UniProt P13639 1-858) (natural protein) | 3.44 | 5.1 | 11.6 |  |  |
| Ras-GAP SH3 domain-binding protein (G3BP1), endogenous (from UniProt Q13283 1-466) (natural protein) |  |  |  | 33.8 | 107 |
| Cyclophilin A (from UniProt P62937 1-165) (natural protein) | 18.7 | 27.4 | 60.3 |  |  |

From PMC4978539
